Data reported in the nanobody polyreactivity screen of Harvey et al. (2022).

Assay: yeast display, Sf9 membrane polyspecificity reagent, FACS + sequencing; frameworks hold sequencing errors
Summary of the method: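 In a synthetic yeast display library (Saccharomyces cerevisiae BJ5465), nanobody expression was induced with galactose for 36–48 hours. FACS gates were set low and high (top ~1%) using anti-HA fluorescence for expression and streptavidin fluorescence for binding of the Sf9 membrane reagent. Each polyreactivity label is drawn from the gate of origin.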

Sequence	polyreactivity (PSR sort gate)
QVQLVESGGGLVQAGGSLRLSCAASGRIFYYNDMGWYRQAPGKERELVATITIGNSTNYADSVKGRFTISRDNAKNTVYLQMNSLKPEDTAVYYCNADYSDVTTGDWRYENDYWGQGTQVTVSS	low polyreactivity
QVQLVESGGGLVQAGGSLRLSCAASGYIFIGYAMGWYRQAPGKERELVTYADSVKGRFTISRDNAKNTVYFQMNSRKPEDTAVYYCNKVPRRFSGLDENYWGQGTQVTVSS	low polyreactivity
QVQLVESGGGLVQAGGSLRLSCAASGRTFGRYVMGWYRQAPGKERDLVAAITGVGSTKYADSVKGRFTISRDNAKNTVYLQMNSLKPEDTAVYYCAKRYLYDRRHAEYWAANDYWGQGTQVTVSS	low polyreactivity
QVQLVESGGGLVQAGGSLRLSCAPSGFTFRYYAMAWYRQAPGKEREFVAAISWSGGSTYYADSVKGRFTISRDNAKNTVYLQMNSLKPEDTAVYYCAAYYPLWGWGYDYWGQGTQVTVSS	high polyreactivity
QVQLVESGGGLVQAGGSLRLSCAASGIISSVYAMGWYRPAPGKERELVAAISGSGGSTYYADSVKGRFTISRDNAKNTVYLQMNSLKAEDTAVYYCAKGYQYQGNSYGYWGQGTQVTVSS	low polyreactivity
QVQLVESGGGLVQAGGSLRLSCAASGSILGQNGMGWYRQAPWKERELVAGITWSGGSTYYADSVKGRFTISRDNAKNTVYLQMNSLKPEDTAVYYCARRGYYAPYYYWGQGTQVTVSS	high polyreactivity
QVQLVESGGGLVQAGGSLRLSCAASGSIFGRNAMGWYRQAPGREREFVATITSRGGRTYYADSVKGRFTISRDNAKNTVYLQMNSLKPEDTAVYYCAADTYISTLKKYRLGDYWGQGTQVTVSS	low polyreactivity
QVQLVESGGGLVQAGGSLRLSCAASGRTFYPYAKGWYRQAPGKERELVAAIRWSGGSTYYADSVKGRFTISRDNAKNTVYLQMNSLKPEDTAVYYCNADWKSYRGPKFDYWGQGTQVTVSS	low polyreactivity
QVQLVESGGGLVQAGGSLRLSCAASGFIFGYNAMGWYRQAPGKERELVAAIRAGDGSTYYADSVKGRFTISRDNAKNTVYLQMNSLKPEDTAVYYCAAAWRQSGYRYGYWGQGTQVTVSS	high polyreactivity
QVQLVESGGGLVQAGGSLRLSCAASGSIRSYAMGWYRQAPGKERELVAAITRSGGSTYYADSVKGRFTISRDNAKITVYLQMNSLKPEDTAFYYCAARYTYSYPLFGSWGQGTQVTVSS	high polyreactivity
QVQLVESGGGLVQAGGSLRLICAASGYTFYAYAMGWYRQAPGKERELVAAITSGSSTYYADSVKGRFTISRDNAKNTVYLQMNSLKQEDTAVYYCASRIRGWRLLTSYYWGQGTQVTVSS	low polyreactivity
QVQLVESGGGLVQEGGSLRLSCADSGRIFSTNAMGWSRQAPGKERELVAAISWSTGSTYYADSVKGRFTISRDNAKNTVYLQMNSLKPEDTAVYYCAASYTRTYWAYSYGYWGQGTQVTVSS	high polyreactivity
QVQIVESGGGIVQAGGSLRLSCAASGLTFHQYTMGWYRQAPGKERELVAAISSGGSTNYADSVKGRFTISRDNAKNTVFLQMNSLKPEDTAVYYCAADKYYFAYDYWGQGTQVNVSS	low polyreactivity
QVQLVESGGGLVQAGGSLRLSCAASGITFADYAMGRYRQAPGKERELVAAISSGTSTYYADSVKGRFTISPDNAKNTVYLQMNSLKPEDTAVYYFYARYWGRVPPPAYDPRRYWGQGTQVTVSS	high polyreactivity
QVQLVESGGGLVQAGGSLRLSCAASGSIIDRYAMGWYRQAPGKERELVAAISRSGGSTYYADSVKGRFTISRDNAKNTVYLQMKSLKPEDTAFYYCAAGGDSGDDWGQGTQVTVSS	low polyreactivity
QVQLVESGGGLVQAGGSLRLSCAASGSIFDSNAMGWYRQAPGKERELVASITSDGDTYYADSVKGRFTISRDNAKNTVYLQMNSLKPEDTAVYYCAAYVPYSGLDYWGQGTQVTVSS	low polyreactivity
QVQLVESGGGLVQAGGSLRLSCAASGTIFTDNVMGWYRQAPGKERELVAAITYSAASTYYADSVKGRFTISRDNAKNTVYLQMNSLKPEDTAVYYCNADDPDYLVSYRYDYWGQGTQVTVSS	low polyreactivity
QVQLVESGGGLVQAGGSLRLSCAASGFTFAVFARGWYRQAPGKERELVAAISRTGTRTYYADSVKGRFTISRDNAKNTVYLQMNSLKPEDTAVYYWAADKYRHGYDYWGQGTQVTVSS	low polyreactivity
QVQLVESGGGLVQAGGSLRLSCAASGRIFGYYAMGWYRQAPGKEREFVAGITQRTDSTYYADSVKGRFTISRDNAKNTVYLQMKSLKPEDTAVYYCAARGYGGYHWGYYWGQGTQVTVSS	high polyreactivity
QVQLVESGGGLVQAGGSLRLSCAASGSIFAANAMGWYRQAPGKERELVADITRGDGTNYADSVKGRFTISRDNAKNTVYLQMNSLKPEDTAVYYCAAEPSQRYPWSGYDYWGQGTQVTVSS	low polyreactivity
QVQLVESGGGLVQAGGSLRLSCAASGNIFSWYAMGWYRQAPGKERELVAAITSGGRTYYADSVKGRFTISRDNAKNTVYLQMNSLKPEDTAVYYCNAVSRLYNRRDYWGQGTQVTVSS	high polyreactivity
QVQRVESGGGLVQAGGSLRLSCAASGYIFKYYAMGWYRHSPGKVRELVAAITGGVSTNYADSVKGRFTISRDNAKNTVYLQMNSLKPEDTAVYYCAAAITPSYTGSEYDYWGQGTQVTVSS	low polyreactivity

Sequence	polyreactivity (PSR sort gate)
QVQLVESGGGLVQAGGSLRLSCAASGRTFNFNVMGWYRQAPGKESQLVAAISKSTGSTFYADSVKGRFTISRDNAKNTVYLQMNSLKPEDTAVYYCNAVRCYGSGRGYGYCGQGTQVTVSS	high polyreactivity
QVQLVESGGGLVQAGGSLRLSCAASGYIFSYYAMGWYRQAPGKERELVAAITSSGGRTYYADSVKGRFTISRDNAKNTVYLQMNSLKPEDTAVYYCNRDYSSYDTEDYWGQGTQVTVSS	high polyreactivity
QVQLVESGGGLVQAGGSLRLTCAASGSIFTGNTMGWYRQATGKERELVAAITGSGGRTYYADSVKGRFTISRDNAKNTVYLQMNSLKPEDTAVYYCAADRSYYPDTRTTYGYNYWGQGTQVTVSS	low polyreactivity
QVQLVESGGGLVQAGGSLRLSCAASGPNFTKYAMGWYRPAPGKERELVAGISSRGTSTYYADSVKGRFTISRDNAKNTVYLQMNSLKPEDTAVYYCNKDSKSRFTYDYWGQGTQVTVSS	high polyreactivity
QVQLEESGGGLVQAGGSLRLSCAASGRIFKRYAMGWYRQAPGKERELVAAITWSGTRTYYADSVKGRFTISRDNAKNTVYLQMNSLKPEDTAVYYCAADQKYHQRPSEYGYWGQGTQVTVSS	high polyreactivity
QVQLVESGGGLVQAGGSLRLICAASGFIFITNAMGWSRQAPGKERELVAAITSSDGNTYYADSVKGRFTISRDNAKNTVYLQMNSLKPEDTAVYYCADDARTKSYVRLYDYWGQGTQVTVSS	low polyreactivity
QVQLVESGGGLFQAGGSLRLSCAASGSTFPYNAMGGYRQAPGKERELVAAINSGATTYYADSVKGRFTISRDNAKNTVYLQMNSLKPEDTAVYYCAAEGYASSSEYDYWGQGTQVTVSS	low polyreactivity
QVQLVESGGGLVQAGGSLRLSCAASGRTFDLYAMGWYRQAPGKERELVARITNIDDSTYYADSVKGRFTISRDYAKNTVYLQMNSLKPEDTAVYYCNAASYSRGPARYDYWGQGTQVTVSS	high polyreactivity
QVQLVESGGGLVQAGGSLRLSCAASGYIFGQYAMGWYRQAPGKERELVADITRGGDTYYADSVKGRFTISRDNAKNTVYLQMNSLKPEDTAVYYCAADSFYWAWQYDYWGQGTQVTVSS	high polyreactivity
QVQLVESGGGLVQAGGTLRLSCAASGFLFVFYDMGWYRQAPAKERELVAGITRNDGSTYYADSVKGRFKISRDNAKNTVYLLMNSLKPEDTAVYYCAADRVRRNDKLAYDYWGQGTQVTVSS	low polyreactivity
QVQLVESGGGLVQAGCSLRLSCAASGNIFYRYAKGRYRPAPGKERELVAGITWSGGSTYYADSVKGRFTISRDNAKNTVYLQMTSLKPEDTAVYYCGQANYYWGQGTQVTVSS	low polyreactivity
QVQLVESGGGLDQAGGSLRLSCAASGSIIWYYAMGWYRQAPGKESELVASISRRGGSTYYADSVKGRFTISRDNAKYTVYLQMNSLKPEDTAVYYCAAYSRTTGSTVQGTYDYWGQGTQVSVSS	low polyreactivity
QVQLVESGGGLVQAGGSLRLSCAASGIIFQVYAMGWYRQAPGKERELVAAISDDGSTNYADSVQGRFTISRDNAKNTGYLQMNSLKPEDTAVYYCAKDSWGRLYYRYDYWGQGTQVTVSS	low polyreactivity
QVQLVESGGGLVQAGGSLRLSCADSGNIFYKNTMGWYRQAPGKERELVAAISVSGGGTYYADSVKGRFTISRDNAKNTVYLQMNSLKPEDTAVYYCAATWRQHPGSMGYWGLGTQVTVSS	high polyreactivity
QVQLVESWGVLVQAGGSLRLSCAASGSIFTYYTMGWYRPEPGKERDFVARISSGGSTNYADSVKGRFTISRDNAMNTVYLQMNSLKPEDTAVYYCAAVSSYSPYRLTYYYWGQGTQVTVSS	high polyreactivity
QVQLVESGGGLVQAGGSLRLSCAASGIIFSKNAMGWYRQAPGKERELVATINRSGGSTYADSVKGRFTISRDNAKNTVYLQMNSLKPEDTAVYYCAKRASPFWRGYDSWGQGTQVTVSS	low polyreactivity
QVQLVESGGGLVQAGGSIRLSCAASGSIFLGYAMGSYRQATGKETELFAAISSGGTRTYYADSVKGRFTITRDNAKNTVYLQMNCLKPEDTAVYYCSARYIPIQYPSYRTWGGYSWGQGTQVTVSS	high polyreactivity
QVQLVESGGGLVQAGGSLRLSCAASGSTFSEYAMGWYRQAPGKEREFVATITVRGGSTYYADSVKGRFTISRDNAKNTVYLQMNSLKPEDTAVYYCAADGSGYYDWYYYWGQGTQVTVSS	low polyreactivity
QVQLVESGGGLVQAGGSLRLSCAASGSTIGPYARGWYRQAPGKERELVAAIRYSSVRTYYADSVKGRFTISRDNAKNTVYLQMKSLKPEDTAVYYCNAVFWSYTEWGRSDYWGQGTEVTVSS	low polyreactivity
QDHLVESGGGLVQAGGSLRLSCAAYGRTFESYAMGRYRHAPGKERELVAAISYSGGSTYYADSVKGRFTISRDNAKNTVYLQMNSLKPEDTAVYYCAVRWRYKYDYWGQGTQVTVSS	high polyreactivity
QVQLVESGGGLVQAGGSLRLSCASSGFTFYKYAMGWYRQAPGKERELVAAITRGDSTYYADSVKGRFTISRDNAKNTVYLQMNSLKPEDTAVYYCNAVFSYRLFNYWGQGTQVTVSS	high polyreactivity
